The test system of test [1] is deep cavities in beagle dog premolars. Briefly: Deep cavity tooth defect model in beagle dog premolars. Format: in vivo. The text has this:
(§1) For in vivo canine studies, a total of 10 beagle dogs (2 y) were operated on, with all of them reaching end points. For each animal, 4 to 6 maxillary premolars and 6 mandibular premolars were used, depending on their periodontal conditions. Control and experimental groups were allocated to each and every animal so that possible biases resulting from individual nutritional, behavioral, and pulpal conditions could be eliminated. Compared to small animal studies, the sample size was necessarily limited for feasibility and ethical reasons. While the exact numbers for each experiment are included in the figure legends, at least 6 premolars and up to 12 premolars were assigned to every control and experimental group. Investigators performing beagle operation and sampling were not blinded, while investigators involved in histological analysis were blinded. All experiments using animals followed protocols approved by the Institutional Animal Care and Use Committee of Seoul National University (SNU-180416-2-1 and SNU-171020-5-2).
(§2) Beagle dogs of 1–2 years of age were used for three independent experiments. After disinfecting the cervical regions of the maxillary and mandibular premolars with 0.5% chlorhexidine, dish-shaped class V cavities were prepared using a #4 high-speed round bur (head diameter, 1.4 mm). […]

The subject of test [2] is shallow cavities in beagle dog premolars. Briefly: Shallow cavity tooth defect model in beagle dog premolars. The test is classed as in vivo.
Excerpt: as §1, §2

The subject of test [3] is dental pulp cells under deep cavities. Nature of the test: TUNEL assay of dental pulp at deep cavity preparation areas. Format: in vivo, beagle dog. The settings on record: 3 weeks, versus GI cement only control. The protocol:
Apoptotic cells were detected using the TUNEL kit (Roche Biochemicals, Basel, Switzerland), according to the manufacturer’s instructions. Endogenous peroxidase activity within the tissue sections were blocked in 3% H2O2 prior to enzymatic labeling. To yield a colored reaction product, enzymatically labeled cells were then incubated with 3,3-diaminobenzidine tetrahydrochloride. Visualization was achieved by incubating the sections with diaminobenzidine tetrahydrochloride (DAB), and subsequent counter-staining with hematoxylin. Positive TUNEL signals were converted to red color using IHC Profiler of Image J software (National Institute of Health, Gaithersburg, MD, USA).

In test [4] the test system is cavities in beagle dog premolars. Briefly: Characterisation of CPNE7-induced hard tissue (SEM, Masson's trichrome, alternative filling materials). Format: in vivo. The procedure:
Beagle dogs of 1–2 years of age were used for three independent experiments. After disinfecting the cervical regions of the maxillary and mandibular premolars with 0.5% chlorhexidine, dish-shaped class V cavities were prepared using a #4 high-speed round bur (head diameter, 1.4 mm). For shallow cavities, the drilling stopped when half to two-thirds of the bur head penetrated the tooth structure, depending on the tooth size. For deep cavities, the drilling stopped when the color of the remaining dentin looked reddish gray. The smear layer was removed with a gentle application of 17% EDTA. After sufficient irrigation, surgical sites were dried with a cotton pellet. For CPNE7 function analysis, the cavities were either untreated or treated with a topical application of rCPNE7 (recombinant CPNE7) protein (1 µg total rCPNE7 per tooth in a buffer containing 25 mM Tris-HCl, 100 mM glycine, and 10% glycerol). After a brief incubation for diffusion, the cavities were then filled with either glass ionomer (GI) cement (GC; Fuji II LC; GC America Inc., Alsip, IL, USA), composite resin (Filtek Supreme Ultra Flowable Restorative; 3 M, MN, USA) or intermediate restorative material (IRM; Dentsply Sirona, New York, PA, USA). For peptide function analysis, an HIV-1 Tat-derived cell-penetrating peptide was used as control. In addition to the abovementioned shallow and deep cavity models, complete pulp exposure was performed for peptide analysis. For complete pulp exposure, the drilling stopped when a pin-point exposure of the pulp was generated and bleeding was evident. Cotton pellets soaked in saline were used for bleeding control. Cavities with exposed pulps were divided into two groups for the experiment. Group 1 received only GI cement filling, group 2 received GI cement filling after MTA (ProRoot MTA; Dentsply Sirona, New York, PA, USA) sealing, and group 3 received GI cement filling after MTA mixed with CPNE7-derived peptide (Cpne7-DP) sealing. […]

Setting [5] is: beagle dog premolars, topical application, then cavity filling, H&E histology after 3 weeks.
Where [6] appears, read: six weeks instead of three, H&E, n = 6.

B1: rCPNE7: recombinant CPNE7 protein, a dental epithelium-derived calcium-dependent phospholipid-binding protein (Origene) (protein, UniProt Q9UBL6 1-633, looked up)
Copine-7: MSAGSERGAAATPGGLPAPCASKVELRLSCRHLLDRDPLTKSDPSVALLQQAQGQWVQVGRTEVVRSSLHPVFSKVFTVDYYFEEVQRLRFEVYDTHGPSGFSCQEDDFLGGMECTLGQPAQKWLLQVVMRVSVDVLGPAGHCAKHFLCCTESSHLARTGPSFLLRYDDLCLPWATAGAVRWWTCRGGHTQGWQIVAQKKVTRPLLLKFGRNAGKSTITVIAEDISGNNGYVELSFRARKLDDKDLFSKSDPFLELYRVNDDQGLQLVYRTEVVKNNLNPVWEAFKVSLSSLCSCEETRPLKCLVWDYDSRGKHDFIGEFSTTFEEMQKAFEEGQAQWDCVNPKYKQKRRSYKNSGVVVLADLKFHRVYSFLDYIMGGCQIHFTVAIDFTASNGDPRNSCSLHYINPYQPNEYLKALVSVGEICQDYDSDKRFSALGFGARIPPKYEVSHDFAINFNPEDDECEGIQGVVEAYQNCLPRVQLYGPTNVAPIISKVARVAAAEESTGKASQYYILLILTDGVVTDMADTREAIVRASRLPMSIIIVGVGNADFTDMQVLDGDDGVLRSPRGEPALRDIVQFVPFRELKNASPAALAKCVLAEVPKQVVEYYSHRGLPPRSLGVPAGEASPGCTP
Regarding B1, the “New hard tissue formation beneath deep cavity” value in test [1] (setting [5]) is given as “newly generated tertiary dentin was present beneath the remaining dentin”. In test [1] (setting [6]), the “Thickness of newly formed tubular dentin, deep cavity” value is on record as “increased significantly”. Also, in test [2] (setting [5]), the “New hard tissue formation beneath shallow cavity” value is “newly generated tertiary dentin retaining the physiologic tubule structure”. For the same molecule, the “Thickness of newly formed tubular dentin, shallow cavity” value in test [2] (setting [6]) is recorded as “increased significantly”. In test [3], the “Cell death under the newly generated dentin (TUNEL)” value is listed as “significantly reduced cell death”. Also, the “Collagen content of newly generated dentin area” value in test [4] (Masson's trichrome staining) is reported as “higher collagen content”. The “Hard tissue formation with alternative cavity filling material” value in test [4] (composite resin or zinc oxide-eugenol (ZOE) filling, H&E after six weeks, n = 6) is reported as “formation of tubular dentin”. Also, the “Presence of dentinal tubules in the newly mineralized area” value in test [4] (scanning electron microscopy, along the entire length of predentin) is recorded as “clear tubule structure”.

The record behind these values is PMC7603008 (Materials, 2020).
